Read-outs that look alike come from different tables or passages of the source. Each block holds one binder with its values, some of them ahead of it.
Experiments:
[1] = biological target: T1, linear 15mer peptides derived from human CD3ε residues 5-20 (Set 3) (human); assay: peptide array ELISA, Set 3
T1 construct: also called peptides spanning residues 5-20
T1 peptide: EEMGGITQTPYKVSIS
Description: (§1) The binding of the antibodies to each of the synthesized peptides was tested by ELISA. The peptide arrays were incubated with primary antibody solution (overnight at 4° C.). After washing, the peptide arrays were incubated with a 1/1000 dilution of an antibody peroxidase conjugate (SBA, cat.nr.2010-05) for one hour at 25° C. After washing, the peroxidase substrate 2,2′-azino-di-3-ethylbenzthiazoline sulfonate (ABTS) and 2 μl/ml of 3% H₂O₂ were added. After one hour, the color development was measured. The color development was quantified with a charge coupled device (CCD)—camera and an image processing system.

[2] = biological target: T2, human CD3ε expressed on the cell surface of T cells (Jurkat cells; human CD8+ T cells) (human, UniProt P07766 23-207); assay: cell-based ELISA on Jurkat cells, CD3ε-deficient Jurkat subtracted
T2 construct: whole, on cells; also called native CD3ε embedded in the TCR complex on Jurkat cells
Description: Jurkat cells (clone E6-1), a human T cell line, were seeded at 300,000 cells/well in round bottom 96-well plates in 100 μl phosphate-buffered saline (PBS) containing 10% FBS. Five-fold serial dilutions of anti-CD3 rabbit monoclonal antibodies ranging from 90 nM to 0.0058 nM were added to the plates in 100 μl PBS containing 10% FBS. […] This secondary antibody was linked to the enzyme horseradish peroxidase (HRP). HRP activity was measured by addition of TMB substrate (3,3′,5,5′-tetramethylbenzidine, KPL, Cat. No. 53-00-00), which in a colorimetric reaction is processed by the HRP. The color intensity of the processed substrate is directly proportional to the amount of anti-CD3 antibody bound to Jurkat cells. To quantify color intensity, light absorbance (optical density) at the respective wave length was measured using a microtiter plate reader (Infinity reader M200 Pro, Tecan).
To correct for unspecific binding of the antibodies to unknown components presented on the cell surface of Jurkat cells, a CD3ε deficient derivative of the Jurkat T cell line (J.RT3-T3.5) was used. Binding of the monoclonal antibodies to this cell line was measured as described above for the Jurkat cells. For quantification of specific binding to Jurkat cells, the optical density for binding to the negative control was subtracted from the optical density for binding to Jurkat cells. Data were analyzed using a four-parameter logistic curve fit using the Softmax Data Analysis Software (Molecular Devices), and the molar concentration of anti-CD3 antibody required to reach 50% binding (EC₅₀, mid-OD of the standard curve) was derived from dose response curves.

[3] = biological target: T3, human heterodimeric single-chain CD3εγ extracellular domain (human, UniProt P07766 23-126; P09693 23-116); assay: SPR, rabbit IgG captured, human single-chain CD3εγ ECD injected
T3 construct: extracellular domain; Produced in-house; also called scCD3γε; human CD3ge
Description: Binding affinities of monoclonal rabbit anti-CD3 antibodies were measured by surface plasmon resonance (SPR) using a MASS-1 SPR instrument (Sierra Sensors). […] Rabbit monoclonal antibodies were captured by the immobilized anti-rabbit IgG antibody. Two-fold serial dilutions of human heterodimeric single-chain CD3εγ extracellular domain (produced in-house) ranging from 90 to 2.81 nM were injected into the flow cells for 3 min and dissociation of the protein from the IgG captured on the sensor chip was allowed to proceed for 5 min. After each injection cycle, surfaces were regenerated with two injections of 10 mM glycine-HCl. The apparent dissociation (kd) and association (ka) rate constants and the apparent dissociation equilibrium constant (KD) were calculated with the MASS-1 analysis software (Analyzer, Sierra Sensors) using one-to-one Langmuir binding model.

[4] = biological target: T4, linear 15mer peptides derived from cynomolgus CD3ε residues 5-20 (Set 4) (cynomolgus); assay: peptide array ELISA, Set 4
T4 construct: also called peptides spanning residues 5-20
T4 peptide: EEMGSITQTPYQVSIS
Description: as §1

[5] = biological target: T2, human CD3ε expressed on the cell …; assay: cell-based or functional assay
[6] = biological target: T5, cynomolgus monkey heterodimeric single-chain CD3εγ extracellular domain (cynomolgus monkey, UniProt Q95LI5 22-117; Q95LI7 23-113); assay: SPR; ratio of the KDs for cyno and human single-chain CD3εγ
[7] = biological target: T5, cynomolgus monkey heterodimeric …; assay: SPR, rabbit IgG captured, cyno single-chain CD3εγ ECD injected
[8] = biological target: T6, linear 15mer peptide derived from human CD3ε residues 2-16 (wild type of the substitution library, Set 1) (human); assay: 15mer peptide array ELISA
T6 construct: Probed as a saturation mutagenesis library on a peptide array
T6 peptide: DGNEEMGGITQTPYK

[9] = biological target: T7, linear 15mer peptide derived from cynomolgus CD3ε residues 2-16 (wild type of the substitution library, Set 2) (cynomolgus); assay: 15mer peptide array ELISA
T7 construct: Probed as a saturation mutagenesis library on a peptide array
T7 peptide: DGNEEMGSITQTPYQ

mouse IL23R [10] = biological target: T8, mouse IL23R (mouse, UniProt Q8K4B4 24-374, limits assumed); assay: SPR
T8 sequence (looked up): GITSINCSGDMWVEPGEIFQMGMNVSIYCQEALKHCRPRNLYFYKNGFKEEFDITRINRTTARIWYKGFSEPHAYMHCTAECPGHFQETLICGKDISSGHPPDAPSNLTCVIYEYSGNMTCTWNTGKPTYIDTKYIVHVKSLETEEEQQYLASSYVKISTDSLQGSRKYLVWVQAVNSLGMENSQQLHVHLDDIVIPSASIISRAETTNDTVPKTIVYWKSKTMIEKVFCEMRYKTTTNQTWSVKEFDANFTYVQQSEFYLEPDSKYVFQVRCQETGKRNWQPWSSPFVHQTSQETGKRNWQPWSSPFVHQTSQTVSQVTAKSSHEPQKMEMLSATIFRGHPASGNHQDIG

mouse CD3ε [11] = biological target: T9, mouse CD3ε (mouse, UniProt P22646 22-108, limits assumed); assay: SPR
mouse IL23R [12] = biological target: T8, mouse IL23R; assay: SPR; remark: listed apart in the source
mouse CD3ε [13] = biological target: T9, mouse CD3ε; assay: SPR; remark: listed apart in the source

T5 sequence (Q95LI7 other isoform, or with tags, fused parts or gaps): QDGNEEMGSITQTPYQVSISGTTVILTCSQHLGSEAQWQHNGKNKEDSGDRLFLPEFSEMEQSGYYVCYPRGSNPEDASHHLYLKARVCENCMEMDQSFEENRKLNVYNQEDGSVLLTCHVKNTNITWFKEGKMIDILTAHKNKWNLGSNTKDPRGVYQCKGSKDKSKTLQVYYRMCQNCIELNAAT
T9 sequence (P22646 22-108 limits assumed): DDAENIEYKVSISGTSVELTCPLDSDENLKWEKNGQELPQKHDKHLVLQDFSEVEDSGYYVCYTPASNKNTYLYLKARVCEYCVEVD

binding result [1]: no binding | EC50 [2]: 1.87 nM | Kd [3]: 0.113 nM | koff [3]: 9.88e-05 s⁻¹ | kon [3]: 873000 M⁻¹ s⁻¹ | binding result [4]: no binding | Fold increase in CD69 expression [MFI normalized to neg. ctrl.], 1.25 µg/ml anti-CD3 IgG [5]: 2.6 fold | Fold increase in CD69 expression [MFI normalized to neg. ctrl.], 5 µg/ml anti-CD3 IgG [5]: 3.5 fold | Fold increase in CD69 expression [MFI normalized to neg. ctrl.], 20 µg/ml anti-CD3 IgG [5]: 7.8 fold | KD (human)/KD (cyno) [6]: 36 | Kd [7]: 4.12 nM | koff [7]: 0.00266 s⁻¹ | kon [7]: 646000 M⁻¹ s⁻¹ | binding result [8]: binds | binding result [9]: binds
B1: clone-04 (antibody, V domains shown)
VH: QSLEESGGRLVKPDETLTLTCTVSGFPLSSYAMGWFRQAPGKGLEWIGMILRSDNTYYASWAKGRFTISKTSTTVDLKITSPTTEDTATYFCARRHYNASGNPIAIGDLWGPGTLVTVSS
VL: AQVLTQTPSSVSAAVGGTVTINCQSSQSVYNNNRLSWFQQKPGQPPKLLIYTTSSLASGVPSRFKGSGSGTEFTLTISDLECADAATYYCQGEFSCSRADCFNFGGGTEVVVKG
notes: Recombinant rabbit IgG; also called Clone 4

Kd (mouse IL23R [10]): 4.66 nM | koff (mouse IL23R [10]): 0.00326 s⁻¹ | kon (mouse IL23R [10]): 701000 M⁻¹ s⁻¹ | Kd (mouse CD3ε [11]): 9.11 nM | koff (mouse CD3ε [11]): 0.00213 s⁻¹ | kon (mouse CD3ε [11]): 233000 M⁻¹ s⁻¹
B2: PRO387 (bispecific antibody)
chain: DIQMTQSPSSLSASVGDRVTITCQASENIYSFLAWYQQKPGKAPKLLIYSASKLAAGVPSRFSGSGSGTDFTLTISSLQPEDFATYYCQQTNRYSNPDIYNVFGQGTKLTVLGGGGGSEVQLVESGGGLVQPGKSLKLSCEASGFTFSGYGMHWVRQAPGRGLESVAYITSSSINIKYADAVKGRFTVSRDNAKNLLFLQMNILKSEDTAMYYCARFDWDKNYWGQGTMVTVSSGGGGSGGGGSGGGGSGGGGSDIQMTQSPSSLPASLGDRVTINCQASQDISNYLNWYQQKPGKAPKLLIYYTNKLADGVPSRFSGSGSGRDSSFTISSLESEDIGSYYCQQYYNYPWTFGPGTKLEIKRGGGGSEVQLVESGGGLVQPGGSLRLSCAASGIDFNSNYYMCWVRQAPGKGLEWIGCIYVGSHVNTYYANWAKGRFTISRDNSKNTVYLQMNSLRAEDTAVYYCATSGSSVLYFKFWGQGTLVTVSS
notes: scDb VLA-L1-VHB-L2-VLB-L3-VHA, A = anti-IL23R, B = anti-mouse CD3ε 2C11; also called bispecific single-chain diabody surrogate (scDb); anti-IL23R 14-11-D07-sc01 × anti-mCD3 2C11

Kd (mouse IL23R [12]): 0.583 nM | koff (mouse IL23R [12]): 0.000533 s⁻¹ | kon (mouse IL23R [12]): 915000 M⁻¹ s⁻¹ | Kd (mouse CD3ε [13]): 11.5 nM | koff (mouse CD3ε [13]): 0.00196 s⁻¹ | kon (mouse CD3ε [13]): 171000 M⁻¹ s⁻¹
B3: PRO386 (bispecific antibody)
light: DIQMTQSPSSLPASLGDRVTINCQASQDISNYLNWYQQKPGKAPKLLIYYTNKLADGVPSRFSGSGSGRDSSFTISSLESEDIGSYYCQQYYNYPWTFGPGTKLEIKRRTVAAPSVFIFPPSDEQLKSGTASVVCLLNNFYPREAKVQWKVDNALQSGNSQESVTEQDSKDSTYSLSSTLTLSKADYEKHKVYACEVTHQGLSSPVTKSFNRGECGGGGSGGGGSHMDIQMTQSPSSLSASVGDRVTITCQASENIYSFLAWYQQKPGKAPKLLIYSASKLAAGVPSRFSGSGSGTDFTLTISSLQPEDFATYYCQQTNRYSNPDIYNVFGQGTKLTVLGGGGGSGGGGSGGGGSGGGGSEVQLVESGGGLVQPGGSLRLSCAASGIDFNSNYYMCWVRQAPGKGLEWIGCIYVGSHVNTYYANWAKGRFTISRDNSKNTVYLQMNSLRAEDTAVYYCATSGSSVLYFKFWGQGTLVTVSS
heavy: EVQLVESGGGLVQPGKSLKLSCEASGFTFSGYGMHWVRQAPGRGLESVAYITSSSINIKYADAVKGRFTVSRDNAKNLLFLQMNILKSEDTAMYYCARFDWDKNYWGQGTMVTVSSASTKGPSVFPLAPSSKSTSGGTAALGCLVKDYFPEPVTVSWNSGALTSGVHTFPAVLQSSGLYSLSSVVTVPSSSLGTQTYICNVNHKPSNTKVDKKVEPKSCGGGGSGGGGSHMDIQMTQSPSSLSASVGDRVTITCQASENIYSFLAWYQQKPGKAPKLLIYSASKLAAGVPSRFSGSGSGTDFTLTISSLQPEDFATYYCQQTNRYSNPDIYNVFGQGTKLTVLGGGGGSGGGGSGGGGSGGGGSEVQLVESGGGLVQPGGSLRLSCAASGIDFNSNYYMCWVRQAPGKGLEWIGCIYVGSHVNTYYANWAKGRFTISRDNSKNTVYLQMNSLRAEDTAVYYCATSGSSVLYFKFWGQGTLVTVSS
notes: Heterodimer; 2C11 Fab with an anti-IL23R scFv 14-11-D07-sc01 on the C-terminus of each chain; also called Tribody; bispecific, trivalent Fab-scFv fusion surrogate molecule

Reference: patent US20180244777A1 (NUMAB THERAPEUTICS, published 2018)
